Reference: patent US20030166864A1 (Human Genome Sciences, published 2003)

Target: T1, TACI-Fc fusion protein (transmembrane activator and CAML-interactor fused to Fc) (Homo sapiens (Human), UniProt O14836 1-159)
T1 construct: also called TACI-FC protein; Full-length TACI-Fc; not shown: Fc part from the vector pC4-Fc
T1 sequence: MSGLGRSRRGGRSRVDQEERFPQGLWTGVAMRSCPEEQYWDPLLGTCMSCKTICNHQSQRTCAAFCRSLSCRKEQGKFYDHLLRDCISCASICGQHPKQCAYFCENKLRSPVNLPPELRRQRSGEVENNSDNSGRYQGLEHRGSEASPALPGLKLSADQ
Assay: BIAcore (SPR), TACI-Fc amine-coupled to a CM5 chip, TNF-epsilon in flow
Protocol: BIAcore analysis was performed essentially as follows. TACI-FC protein was immobilized to the BIAcore sensor chip (CM5 chip) via amine groups using N-ethyl-N′-(dimethlaminopropyl)carbodiimide/N-hydroxysuccinimide chemistry. Various dilutions of TNF-epsilon or other TNF ligands were flowed over the receptor-derivatized flow cells at a rate of 15 microliters per minute for a total volume of 50 microliters. The amount of bound protein was determined during washing of the flow cell with HBS buffer (10 mM HEPES, pH 7.4, 150 mM NaCl, 3.4 mM EDTA, 0.005% Surfactant P20). Binding specificity of TNF-epsilon to TACI was determined by competition with soluble competitor. The flow cell surface was regenerated by displacing bound protein by washing with 20 microliters of 10 mM glycine-HCl, pH=2.3.

- Kd: 6 nM
B1: TNF-epsilon (purified, trimeric form isolated by size exclusion chromatography) (ligand)
chain: AVLTQKQKNDSDVTEVMWQPALRRGRGLQAQGYGVRIQDAGVYLLYSQVLFQDVTFTMGQVVSREGQGRQETLFRCIRSMPSHPDRAYNSCYSAGVFHLHQGDILSVIIPRARAKLNLSPHGTFLGFVKL
